Among the data in publication PMC4520572 are SNARE-dependent activation of the ATPase activity of NSF (coupled ATPase assay, 37 °C, with α-SNAP, KCl and NaCl omitted) and SNARE-dependent activation of the ATPase activity of NSF (coupled ATPase assay, 37 °C; activation was dependent on α-SNAP) values, retold here.

This experiment addresses soluble neuronal SNARE complex (unlabeled) (UniProt P32851).

soluble neuronal SNARE complex (unlabeled), sequence (P32851 1-265 S249C/K253C, chain 1 of 3): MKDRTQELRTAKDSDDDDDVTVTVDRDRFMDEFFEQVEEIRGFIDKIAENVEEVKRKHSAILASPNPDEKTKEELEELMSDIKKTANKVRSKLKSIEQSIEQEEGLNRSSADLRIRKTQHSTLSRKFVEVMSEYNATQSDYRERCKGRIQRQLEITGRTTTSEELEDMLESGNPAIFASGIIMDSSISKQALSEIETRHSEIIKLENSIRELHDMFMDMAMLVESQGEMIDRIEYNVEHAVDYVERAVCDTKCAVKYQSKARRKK
soluble neuronal SNARE complex (unlabeled), sequence (P60881 other isoform, or with tags, fused parts or gaps, chain 2 of 3, further chain): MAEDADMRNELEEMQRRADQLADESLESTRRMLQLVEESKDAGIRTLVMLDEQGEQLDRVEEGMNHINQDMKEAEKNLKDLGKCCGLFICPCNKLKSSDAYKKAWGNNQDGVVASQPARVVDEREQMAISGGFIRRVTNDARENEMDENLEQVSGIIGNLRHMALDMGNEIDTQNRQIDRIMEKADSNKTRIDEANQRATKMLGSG
soluble neuronal SNARE complex (unlabeled), sequence (P63045 1-96, chain 3 of 3, further chain): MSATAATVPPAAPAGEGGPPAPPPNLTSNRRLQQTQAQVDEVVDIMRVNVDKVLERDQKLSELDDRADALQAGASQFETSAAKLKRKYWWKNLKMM
N-Ethylmaleimide-sensitive factor (NSF), sequence (P18708 whole entry): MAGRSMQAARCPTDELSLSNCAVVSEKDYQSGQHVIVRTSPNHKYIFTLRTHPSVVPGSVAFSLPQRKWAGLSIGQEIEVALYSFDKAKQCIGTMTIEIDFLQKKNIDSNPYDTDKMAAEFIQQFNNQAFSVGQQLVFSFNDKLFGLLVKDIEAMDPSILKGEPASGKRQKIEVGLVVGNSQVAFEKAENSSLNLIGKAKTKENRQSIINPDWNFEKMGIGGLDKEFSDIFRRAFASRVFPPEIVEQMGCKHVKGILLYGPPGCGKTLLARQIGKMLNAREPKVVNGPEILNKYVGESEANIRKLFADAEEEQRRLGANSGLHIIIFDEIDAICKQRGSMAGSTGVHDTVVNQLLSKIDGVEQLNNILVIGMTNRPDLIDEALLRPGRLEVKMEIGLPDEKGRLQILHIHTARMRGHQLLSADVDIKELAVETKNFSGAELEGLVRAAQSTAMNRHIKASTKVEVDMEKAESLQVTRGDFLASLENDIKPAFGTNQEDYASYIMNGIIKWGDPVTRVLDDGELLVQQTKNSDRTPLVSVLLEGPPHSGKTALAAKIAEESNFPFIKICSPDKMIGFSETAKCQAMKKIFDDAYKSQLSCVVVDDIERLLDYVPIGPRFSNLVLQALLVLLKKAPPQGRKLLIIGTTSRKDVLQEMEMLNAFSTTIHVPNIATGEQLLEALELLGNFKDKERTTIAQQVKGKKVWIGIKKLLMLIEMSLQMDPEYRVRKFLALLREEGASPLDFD
α-soluble NSF attachment protein (α-SNAP), sequence (P54921 whole entry): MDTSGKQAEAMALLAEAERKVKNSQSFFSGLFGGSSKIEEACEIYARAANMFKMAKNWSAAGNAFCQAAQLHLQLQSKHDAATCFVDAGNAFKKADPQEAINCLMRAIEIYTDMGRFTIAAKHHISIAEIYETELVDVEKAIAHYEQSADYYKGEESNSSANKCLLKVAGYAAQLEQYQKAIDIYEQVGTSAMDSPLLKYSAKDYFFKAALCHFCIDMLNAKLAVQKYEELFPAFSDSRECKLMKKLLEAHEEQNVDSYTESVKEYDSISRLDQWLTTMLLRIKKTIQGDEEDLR

For “N-Ethylmaleimide-sensitive factor (NSF) (from UniProt P18708 1-744) (enzyme)”, the SNARE-dependent activation of the ATPase activity of NSF (coupled ATPase assay, 37 °C, with α-SNAP, KCl and NaCl omitted) was determined as 26 fold.

Take “α-soluble NSF attachment protein (α-SNAP) (from UniProt P54921 1-295) (natural protein)”: the SNARE-dependent activation of the ATPase activity of NSF (coupled ATPase assay, 37 °C; activation was dependent on α-SNAP) amounted to 26 fold.
